Like-named read-outs stand apart in the source and are kept apart here. Positions of bridges follow the written chain, without caps; N, C: chain ends. Non-standard residues stand in square brackets, D forms with d. dPhe(4-Br) = N[C@H](Cc1ccc(Br)cc1)C(=O)O; Cit = NC(=O)NCCC[C@H](N)C(=O)O; Nle = CCCC[C@H](N)C(=O)O; Aib = CC(C)(N)C(=O)O
Key:
plasma protein [1] = test: plasma ultrafiltration (Centrifree), LC-MS/MS; peptide 0.1 uM
plasma protein [2] = test: plasma ultrafiltration (Centrifree), LC-MS/MS; peptide 10.0 uM
plasma protein [3] = test: plasma ultrafiltration (Centrifree), LC-MS/MS; peptide 1.0 uM
human MC3R [4] = biological target: T1, human MC3R (human, UniProt P41968 1-323); test: cell-based or functional assay
T1 sequence (P41968 whole entry): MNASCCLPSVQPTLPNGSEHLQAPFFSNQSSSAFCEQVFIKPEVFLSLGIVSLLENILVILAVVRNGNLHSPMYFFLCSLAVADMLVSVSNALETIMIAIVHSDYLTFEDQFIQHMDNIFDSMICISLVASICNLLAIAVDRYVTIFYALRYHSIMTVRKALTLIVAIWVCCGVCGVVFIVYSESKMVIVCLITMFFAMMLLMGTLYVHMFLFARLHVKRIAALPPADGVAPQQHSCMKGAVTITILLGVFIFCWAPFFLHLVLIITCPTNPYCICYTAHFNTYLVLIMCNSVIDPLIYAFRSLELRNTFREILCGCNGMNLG

human MC4R receptor [5] = biological target: T2, human MC4R receptor (human, UniProt P32245 1-332); test: cell-based or functional assay
T2 sequence (P32245 whole entry): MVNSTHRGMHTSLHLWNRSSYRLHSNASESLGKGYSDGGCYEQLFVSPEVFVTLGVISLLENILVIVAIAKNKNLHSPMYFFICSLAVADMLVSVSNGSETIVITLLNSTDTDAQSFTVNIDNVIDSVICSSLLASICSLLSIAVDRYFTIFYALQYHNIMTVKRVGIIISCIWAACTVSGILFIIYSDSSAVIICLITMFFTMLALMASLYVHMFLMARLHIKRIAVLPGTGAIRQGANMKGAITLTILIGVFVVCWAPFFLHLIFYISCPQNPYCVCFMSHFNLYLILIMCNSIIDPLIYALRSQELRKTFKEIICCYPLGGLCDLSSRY

human MC3R [6] = biological target: T1, human MC3R; test: cell-based or functional assay; remark: listed apart in the source
human MC4R receptor [7] = biological target: T2, human MC4R receptor; test: cell-based or functional assay; remark: listed apart in the source

B1: CTX-1246 (peptide)
peptide: Ac-RC[Aib]R[dPhe(4-Br)]R[dW]C-NH2
modifications: disulfide 2-8
SMILES: CC(=O)N[C@@H](CCCNC(=N)N)C(=O)N[C@H]1CSSC[C@@H](C(N)=O)NC(=O)[C@@H](Cc2c[nH]c3ccccc23)NC(=O)[C@H](CCCNC(=N)N)NC(=O)[C@@H](Cc2ccc(Br)cc2)NC(=O)[C@H](CCCNC(=N)N)NC(=O)C(C)(C)NC1=O
What does the source list for B1?
Protein Binding (%) (plasma protein [1]): 73%; Protein Binding (%) (plasma protein [2]): 43%; Protein Binding (%) (plasma protein [3]): 44%; % max activation (human MC3R [4]): 21%

With Ac-RCAR[dF]R[dW]C-NH2 (disulfide 2-8) [CTX-1268] as the binder, how does the Protein Binding (%) (plasma protein [1]) read?
Its Protein Binding (%) is 52%.

And the “MC4R selectivity vs MC1R” value (human MC4R receptor [5])?
Its value is 6.59.

And the “MC4R selectivity vs MC3R” value (human MC4R receptor [5])?
The value was 30.

And the Protein Binding (%) (plasma protein [2])?
Its Protein Binding (%) is 62%.

And the “% max activation” value (human MC3R [6])?
The value was 44%.

And the “cAMP EC50” value (human MC3R [6])?
Its value is 211 nM.

And the “% max activation” value (human MC4R receptor [7])?
Its value is 96%.

What about the “cAMP EC50” value (human MC4R receptor [7]) of the same binder?
The value was 7 nM.

What about the Protein Binding (%) (plasma protein [3]) of the same binder?
Its Protein Binding (%) is 58%.

Ac-RC[dA][Cit][dF]RWC-NH2 (disulfide 2-8) [CTX-1285] was tested. Which Protein Binding (%) (plasma protein [1]) did it give?
Its Protein Binding (%) is 45%.

And the “MC4R selectivity vs MC1R” value (human MC4R receptor [5])?
The value was 134.

And the “MC4R selectivity vs MC3R” value (human MC4R receptor [5])?
The value was 2.9.

And the Protein Binding (%) (plasma protein [2])?
Its Protein Binding (%) is 41%.

What about the “% max activation” value (human MC3R [6]) of the same binder?
The value was 28%.

What about the “cAMP EC50” value (human MC3R [6]) of the same binder?
The value was 4.9 nM.

And the “% max activation” value (human MC4R receptor [7])?
Its value is 94%.

What about the “cAMP EC50” value (human MC4R receptor [7]) of the same binder?
Its value is 1.7 nM.

And the Protein Binding (%) (plasma protein [3])?
The Protein Binding (%) was 39%.

B2: CTX-1211 (peptide)
peptide: Ac-RC[dA]R[dF]RWC-NH2
modifications: disulfide 2-8
SMILES: CC(=O)N[C@@H](CCCNC(=N)N)C(=O)N[C@H]1CSSC[C@@H](C(N)=O)NC(=O)[C@H](Cc2c[nH]c3ccccc23)NC(=O)[C@H](CCCNC(=N)N)NC(=O)[C@@H](Cc2ccccc2)NC(=O)[C@H](CCCNC(=N)N)NC(=O)[C@@H](C)NC1=O
Which Protein Binding (%) (plasma protein [1]) does the source give for B2 here?
The Protein Binding (%) was 51%.

What about the “MC4R selectivity vs MC1R” value (human MC4R receptor [5]) of the same binder?
The value was 3.12.

What about the “MC4R selectivity vs MC3R” value (human MC4R receptor [5]) of the same binder?
The value was 5.49.

And the Protein Binding (%) (plasma protein [2])?
The Protein Binding (%) was 61%.

And the “% max activation” value (human MC3R [6])?
Its value is 91%.

And the “cAMP EC50” value (human MC3R [6])?
Its value is 2.1 nM.

And the “% max activation” value (human MC4R receptor [7])?
Its value is 96%.

What about the “cAMP EC50” value (human MC4R receptor [7]) of the same binder?
Its value is 0.38 nM.

And the Protein Binding (%) (plasma protein [3])?
The Protein Binding (%) was 63%.

B3: CTX-1227 (peptide)
peptide: Ac-R[Nle]CH[dF]RWC-NH2
modifications: disulfide 3-8
SMILES: CCCC[C@H](NC(=O)[C@H](CCCNC(=N)N)NC(C)=O)C(=O)N[C@H]1CSSC[C@@H](C(N)=O)NC(=O)[C@H](Cc2c[nH]c3ccccc23)NC(=O)[C@H](CCCNC(=N)N)NC(=O)[C@@H](Cc2ccccc2)NC(=O)[C@H](Cc2c[nH]cn2)NC1=O
For B3, which Protein Binding (%) (plasma protein [1]) is on record?
Its Protein Binding (%) is 50%.

What about the “MC4R selectivity vs MC1R” value (human MC4R receptor [5]) of the same binder?
The value was 0.92.

And the “MC4R selectivity vs MC3R” value (human MC4R receptor [5])?
Its value is 11.

What about the Protein Binding (%) (plasma protein [2]) of the same binder?
The Protein Binding (%) was 54%.

What about the “% max activation” value (human MC3R [6]) of the same binder?
The value was 96%.

And the “cAMP EC50” value (human MC3R [6])?
The value was 2.8 nM.

What about the “% max activation” value (human MC4R receptor [7]) of the same binder?
The value was 103%.

And the “cAMP EC50” value (human MC4R receptor [7])?
Its value is 0.3 nM.

What about the Protein Binding (%) (plasma protein [3]) of the same binder?
The Protein Binding (%) was 47%.

Source: patent US20240391954A1, “MC4R AGONIST PEPTIDES” (The Regents of the University of Michigan, priority 2021, published 2024)
